According to US20120122239A1:

Assays:
[1] = molecular target: human pro B-type natriuretic peptide (HyTest, Turku, Finland; Catalog No. 8PRO8) (human); assay: sandwich CMIA, capture 15F11, 288.7 pM, against human NT-proBNP
[2] = molecular target: glycosylated human proBNP (HyTest, Turku, Finland; Catalog No. 8GOB2) (human); assay: as above
[3] = molecular target: human pro B-type natriuretic peptide (HyTest, Turku, Finland; Catalog No. 8PRO8) (human); assay: sandwich CMIA, capture 15C4, analyte 288.7 pM
[4] = molecular target: human pro B-type natriuretic peptide (HyTest, Turku, Finland; Catalog No. 8PRO8) (human); assay: sandwich CMIA, capture 15F11, analyte 577.4 pM
[5] = molecular target: human NT-pro B-type natriuretic peptide (HyTest, Turku, Finland; Catalog No. 8NT1) (human); assay: sandwich CMIA, capture 15F11, analyte 577.4 pM
[6] = molecular target: glycosylated human proBNP (HyTest, Turku, Finland; Catalog No. 8GOB2) (human); assay: sandwich CMIA, capture 15F11, analyte 577.4 pM
[7] = molecular target: human pro B-type natriuretic peptide (HyTest, Turku, Finland; Catalog No. 8PRO8) (human); assay: sandwich CMIA, capture 15F11, analyte 43.3 pM
[8] = molecular target: human NT-pro B-type natriuretic peptide (HyTest, Turku, Finland; Catalog No. 8NT1) (human); assay: sandwich CMIA, capture 15F11, analyte 43.3 pM
[9] = molecular target: glycosylated human proBNP (HyTest, Turku, Finland; Catalog No. 8GOB2) (human); assay: sandwich CMIA, capture 15F11, analyte 43.3 pM
[10] = molecular target: human pro B-type natriuretic peptide (HyTest, Turku, Finland; Catalog No. 8PRO8) (human); assay: sandwich CMIA, capture 15C4, analyte 43.3 pM
[11] = molecular target: human NT-pro B-type natriuretic peptide (HyTest, Turku, Finland; Catalog No. 8NT1) (human); assay: sandwich CMIA, capture 15C4, analyte 43.3 pM
[12] = molecular target: glycosylated human proBNP (HyTest, Turku, Finland; Catalog No. 8GOB2) (human); assay: sandwich CMIA, capture 15C4, analyte 43.3 pM

Sequence of glycosylated human proBNP (HyTest, Turku, Finland; Catalog No. 8GOB2) (human) (chain, as listed by the source): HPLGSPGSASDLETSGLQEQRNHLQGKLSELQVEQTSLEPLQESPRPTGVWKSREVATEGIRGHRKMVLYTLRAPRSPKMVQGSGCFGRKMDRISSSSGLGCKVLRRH
Sequence of human NT-pro B-type natriuretic peptide (HyTest, Turku, Finland; Catalog No. 8NT1) (human) (chain, as listed by the source): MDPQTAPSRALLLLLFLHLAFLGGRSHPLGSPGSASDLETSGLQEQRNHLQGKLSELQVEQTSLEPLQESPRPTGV

Substance: anti-human NT-proBNP/anti-human proBNP labeled monoclonal antibody 29D12 (HyTest, Turku, Finland)
- % Cross-reactivity [1]: 38.3%
- % Cross-reactivity [2]: 113%
- Analyte rlus [3]: 12100 rlus
- Analyte rlus [4]: 11400 rlus
- Analyte rlus [5]: 33900 rlus
- Analyte rlus [6]: 38700 rlus
- Analyte rlus [7]: 1570 rlus
- Analyte rlus [8]: 1990 rlus
- Analyte rlus [9]: 2320 rlus
- Analyte rlus [10]: 2170 rlus
- Analyte rlus [11]: 8870 rlus
- Analyte rlus [12]: 877 rlus
